In patent publication US20250019422A1 (MAX PLANCK GESELLSCHAFT ZUR F RDERUNG DER WISSENSCHAFTEN E V, published 2025) one finds Kd data, which are given here for 4 molecules.

Read-outs that look alike come from different tables or passages of the source.

For experiment [1], the target named is B.1.617.2/Delta.
Experiment [2] addresses T1, RBD of the SARS-CoV-2 Omicron variant BA.2.75 (SARS-CoV-2 Omicron variant BA.2.75).
Experiment [3] has as its target B.1.617.2/Delta. The source holds these as a separate data set.
For experiment [4], the target named is T1, RBD of the SARS-CoV-2 Omicron variant …. This is another data set of the same source.

B1: Re9B09 (VHH)
VHH: QVQLVESGGGLVQPGGSLRLSCAASGFTLDYYAIGWFRQAPGKEREGVSRISSSDGSTDYADSVKGRFTISRDNAKNTVYLQMNSLKPEDTAVYYCATVPGTYYSGNWYYTWHPEAVDYWGKGTQVTVSS
notes: also called ReB09
On to B1, for which the results for the Kd (in the experiment with B.1.617.2/Delta [1]; in experiment [2]) were 0.3 nM and 2 nM, respectively.

B2: Re5D06 (VHH)
VHH: QVQLVESGGGLVQPGGSLRLSCAASGITLDYYAIGWFRQAPGKEREGVSRIRSSDGSTNYADSVKGRFTMSRDNAKNTVYLQMNSLKPEDTAVYYCAYGPLTKYGSSWYWPYEYDYWGQGTQVTVSS
In the case of B2, in the experiment with B.1.617.2/Delta [3], the Kd is 0.2 nM.

B3: Re6H06 (VHH)
VHH: QVQLVESGGGLVQPGGSLRLSCAASGVTLDYYAIGWFRQAPGKEREGVSCTSSSDGSTYYADSVKGRFTISRDNAKNTVYLQMNSLKPEDTGVYYCAVVPQTYYGGKYYSQCTANGMDYWGKGTLVTVSS
On to B3, for which the Kd with B.1.617.2/Delta [3] is 0.1 nM; in experiment [4] it was no less than 1000 nM.

B4: Re32D03 (VHH)
VHH: QVQLVESGGGLVQPGGSLRLSCAISGITLDYYAVGWFLQAPGKEREGISCMRNWDGRTVYAPSVKGRFTISSDNAKKMVYLEMDNLKSEDTGVYYCAAGPLPPGISCRIPTPLGYDDWGQGTQVTVSS
B4: the dissociation constant (Kd) with B.1.617.2/Delta [1] was no more than 0.01 nM; in experiment [2], 0.35 nM.

As usually defined, the Kd is the equilibrium constant for the complex coming apart.
